Assay [1] has as its target human VEGFA-121-His (human) (UniProt P15692). In words: KinExA equilibrium titration in solution, VEGFA-121.
The target in another assay is human VEGFA-165 (human) (UniProt P15692). In words: KinExA, VEGFA-165; set-up for VEGFA-165 not described. On the technique in general: Kinetic exclusion samples the free partner from a solution-phase mixture.
Chain of human VEGFA-165 (human) (P15692 other isoform, or with tags, fused parts or gaps limits assumed): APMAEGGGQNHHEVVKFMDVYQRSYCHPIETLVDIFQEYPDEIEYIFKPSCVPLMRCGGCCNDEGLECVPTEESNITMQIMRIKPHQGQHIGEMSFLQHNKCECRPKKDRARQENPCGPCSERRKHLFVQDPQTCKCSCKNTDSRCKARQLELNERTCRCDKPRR

Chain of Aflibercept-analogue (Fc fusion) (chain): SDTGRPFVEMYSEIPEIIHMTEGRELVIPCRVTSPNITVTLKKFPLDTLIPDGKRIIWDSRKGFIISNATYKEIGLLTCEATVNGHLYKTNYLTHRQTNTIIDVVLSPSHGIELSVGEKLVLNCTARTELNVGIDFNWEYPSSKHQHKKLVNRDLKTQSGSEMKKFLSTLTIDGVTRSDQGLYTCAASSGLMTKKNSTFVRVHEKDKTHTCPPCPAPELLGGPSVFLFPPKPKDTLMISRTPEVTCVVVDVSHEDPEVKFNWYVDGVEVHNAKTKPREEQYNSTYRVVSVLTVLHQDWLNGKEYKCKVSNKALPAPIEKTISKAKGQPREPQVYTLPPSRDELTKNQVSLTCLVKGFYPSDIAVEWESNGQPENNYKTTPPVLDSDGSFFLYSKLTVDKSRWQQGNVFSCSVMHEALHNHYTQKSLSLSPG
Chain of human VEGFA-121-His (human) (P15692 other isoform, or with tags, fused parts or gaps): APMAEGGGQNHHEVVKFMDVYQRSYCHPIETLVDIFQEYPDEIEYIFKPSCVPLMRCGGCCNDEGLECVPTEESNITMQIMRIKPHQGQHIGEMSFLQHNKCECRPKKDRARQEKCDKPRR

By Kd is commonly meant the free concentration of one partner at which half of the binding sites on the other are occupied at equilibrium, for simple one-to-one binding. Read a high Kd as weaker binding. Regarding Aflibercept-analogue (Fc fusion), the figures for the Kd (in assay [1]; with human VEGFA-165 (human)) were 0.2 pM and 0.1 pM, respectively.
